# Experimental data from the supplement of paper PMC5998384.
# Columns and labels:
# HeLa Kyoto [1] = assay: solubility in G1/S (NP-40 vs SDS abundance) (log2 ratio); higher = more soluble; details: cell cycle stage: G1/S
# HeLa Kyoto [2] = assay: solubility change mitosis vs G1/S (difference of NP-40 vs SDS log2 ratios) (log2 ratio difference); higher = more soluble in mitosis
# HeLa Kyoto [3] = assay: melting temperature (median over replicates), in situ; higher = more thermally stable
# HeLa Kyoto [4] = assay: thermal stability score vs G1/S (z-score of summed log2 fold changes over temperatures); higher = more thermally stable than in G1/S
# [5] = cell cycle stage: early G1 (4.5 h after nocodazole release)
# 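For melting temperature (median over replicates), in situ in this document: HeLa Kyoto cells synchronized by double thymidine or nocodazole block, proteins quantified by TMT10plex mass spectrometry, three independent biological replicates.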
# 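For solubility change mitosis vs G1/S (difference of NP-40 vs SDS log2 ratios) in this document: synchronized HeLa Kyoto cells (double thymidine block for G1/S, nocodazole release for mitosis), protein amounts in NP-40 versus SDS lysates quantified by mass spectrometry, three biological replicates.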
# 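For solubility in G1/S (NP-40 vs SDS abundance) in this document: HeLa Kyoto cells arrested at G1/S by double thymidine block, proteins quantified by TMT10plex mass spectrometry in mild NP-40 versus SDS extracts, three biological replicates.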
# 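For thermal stability score vs G1/S (z-score of summed log2 fold changes over temperatures) in this document: synchronized HeLa Kyoto cells, proteins quantified by TMT10plex mass spectrometry, three biological replicates, mitosis taken 0.5 h after nocodazole release, G1/S directly after double thymidine block.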
Substance,solubility in G1/S (log2) (HeLa Kyoto [1]),solubility change mitosis (log2) (HeLa Kyoto [2]),melting temperature (HeLa Kyoto [3]; cell cycle stage: G1/S) [°C],melting temperature (HeLa Kyoto [3]; cell cycle stage: mitosis) [°C],thermal stability score (HeLa Kyoto [4]; [5]),thermal stability score (HeLa Kyoto [4]; cell cycle stage: mitosis)
MALDFLAGCAGGVAGVLVGHPFDTVKVRLQVQSVEKPQYRGTLHCFKSIIKQESVLGLYKGLGSPLMGLTFINALVFGVQGNTLRALGHDSPLNQFLAGAAAGAIQCVICCPMELAKTRLQLQDAGPARTYKGSLDCLAQIYGHEGLRGVNRGMVSTLLRETPSFGVYFLTYDALTRALGCEPGDRLLVPKLLLAGGTSGIVSWLSTYPVDVVKSRLQADGLRGAPRYRGILDCVHQSYRAEGWRVFTRGLASTLLRAFPVNAATFATVTVVLTYARGEEAGPEGEAVPAAPAGPALAQPSSL [SLC25A29],0.0296,-0.0388,53.2,52.3,-0.402,-0.997
ARFGEF2,-0.186,-0.155,50.7,50.5,0.0515,-0.274
MATRQRESSITSCCSTSSCDADDEGVRGTCEDASLCKRFAVSIGYWHDPYIQHFVRLSKERKAPEINRGYFARVHGVSQLIKAFLRKTECHCQIVNLGAGMDTTFWRLKDEDLLPSKYFEVDFPMIVTRKLHSIKCKPPLSSPILELHSEDTLQMDGHILDSKRYAVIGADLRDLSELEEKLKKCNMNTQLPTLLIAECVLVYMTPEQSANLLKWAANSFERAMFINYEQVNMGDRFGQIMIENLRRRQCDLAGVETCKSLESQKERLLSNGWETASAVDMMELYNRLPRAEVSRIESLEFLDEMELLEQLMRHYCLCWATKGGNELGLKEITY [LCMT1],0.181,-0.123,52.1,53.5,0.211,0.493
MMFYRLLSIVGRQRASPGWQNWSSARNSTSAAEARSMALPTQAQVVICGGGITGTSVAYHLSKMGWKDIVLLEQGRLAAGSTRFCAGILSTARHLTIEQKMADYSNKLYYQLEQETGIQTGYTRTGSIFLAQTQDRLISLKRINAGLNVIGIPSEIISPKKVAELHHLLNVHDLVGAMHVPEDAVVSSADVALALASAASQNGVQIYDRTSVLHVMVKKGQVTGVETDKGQIECQYFVNCAGQWAYELGLSNEEPVSIPLHACEHFYLLTRPLETPLQSSTPTIVDADGRIYIRNWQGGILSGGFEKNPKPIFTEGKNQLEIQNLQEDWDHFEPLLSSLLRRMPELETLEIMKLVNCPETFTPDMRCIMGESPAVQGYFVLAGMNSAGLSFGGGAGKYLAEWMVHGYPSENVWELDLKRFGALQSSRTFLRHRVMEVMPLMYDLKVPRWDFQTGRQLRTSPLYDRLDAQGARWMEKHGFERPKYFVPPDKDLLALEQSKTFYKPDWFDIVESEVKCCKEAVCVIDMSSFTKFEITSTGDQALEVLQYLFSNDLDVPVGHIVHTGMLNEGGGYENDCSIARLNKRSFFMISPTDQQVHCWAWLKKHMPKDSNLLLEDVTWKYTALNLIGPRAVDVLSELSYAPMTPDHFPSLFCKEMSVGYANGIRVMSMTHTGEPGFMLYIPIEYALHVYNEVMSVGQKYGIRNAGYYALRSLRIEKFFAFWGQDINNLTTPLECGRESRVKLEKGMDFIGRDALLQQKQNGVYKRLTMFILDDHDSDLDLWPWWGEPIYRNGQYVGKTTSSAYSYSLERHVCLGFVHNFSEDTGEEQVVTADFINRGEYEIDIAGYRFQAKAKLYPVASLFTQKRRKDDMELSDLHGK [PDPR],-0.175,-0.203,53.6,53.7,-1.29,-1.55
MAKPSHSSYVLQQLNNQREWGFLCDCCIAIDDIYFQAHKAVLAACSSYFRMFFMNHQHSTAQLNLSNMKISAECFDLILQFMYLGKIMTAPSSFEQFKVAMNYLQLYNVPDCLEDIQDADCSSSKCSSSASSKQNSKMIFGVRMYEDTVARNGNEANRWCAEPSSTVNTPHNREADEESLQLGNFPEPLFDVCKKSSVSKLSTPKERVSRRFGRSFTCDSCGFGFSCEKLLDEHVLTCTNRHLYQNTRSYHRIVDIRDGKDSNIKAEFGEKDSSKTFSAQTDKYRGDTSQAADDSASTTGSRKSSTVESEIASEEKSRAAERKRIIIKMEPEDIPTDELKDFNIIKVTDKDCNESTDNDELEDEPEEPFYRYYVEEDVSIKKSGRKTLKPRMSVSADERGGLENMRPPNNSSPVQEDAENASCELCGLTITEEDLSSHYLAKHIENICACGKCGQILVKGRQLQEHAQRCGEPQDLTMNGLGNTEEKMDLEENPDEQSEIRDMFVEMLDDFRDNHYQINSIQKKQLFKHSACPFRCPNCGQRFETENLVVEHMSSCLDQDMFKSAIMEENERDHRRKHFCNLCGKGFYQRCHLREHYTVHTKEKQFVCQTCGKQFLRERQLRLHNDMHKGMARYVCSICDQGNFRKHDHVRHMISHLSAGETICQVCFQIFPNNEQLEQHMDVHLYTCGICGAKFNLRKDMRSHYNAKHLKRT [ZBTB1],-0.369,-0.0122,–,51,2,3.65
MTTSGALFPSLVPGSRGASNKYLVEFRAGKMSLKGTTVTPDKRKGLVYIQQTDDSLIHFCWKDRTSGNVEDDLIIFPDDCEFKRVPQCPSGRVYVLKFKAGSKRLFFWMQEPKTDQDEEHCRKVNEYLNNPPMPGALGASGSSGHELSALGGEGGLQSLLGNMSHSQLMQLIGPAGLGGLGGLGALTGPGLASLLGSSGPPGSSSSSSSRSQSAAVTPSSTTSSTRATPAPSAPAAASATSPSPAPSSGNGASTAASPTQPIQLSDLQSILATMNVPAGPAGGQQVDLASVLTPEIMAPILANADVQERLLPYLPSGESLPQTADEIQNTLTSPQFQQALGMFSAALASGQLGPLMCQFGLPAEAVEAANKGDVEAFAKAMQNNAKPEQKEGDTKDKKDEEEDMSLD [ADRM1],0.469,-0.24,51.3,51.1,0.363,-2.12
MEATGTWALLLALALLLLLTLALSGTRARGHLPPGPTPLPLLGNLLQLRPGALYSGLMRLSKKYGPVFTIYLGPWRPVVVLVGQEAVREALGGQAEEFSGRGTVAMLEGTFDGHGVFFSNGERWRQLRKFTMLALRDLGMGKREGEELIQAEARCLVETFQGTEGRPFDPSLLLAQATSNVVCSLLFGLRFSYEDKEFQAVVRAAGGTLLGVSSQGGQTYEMFSWFLRPLPGPHKQLLHHVSTLAAFTVRQVQQHQGNLDASGPARDLVDAFLLKMAQEEQNPGTEFTNKNMLMTVIYLLFAGTMTVSTTVGYTLLLLMKYPHVQKWVREELNRELGAGQAPSLGDRTRLPYTDAVLHEAQRLLALVPMGIPRTLMRTTRFRGYTLPQGTEVFPLLGSILHDPNIFKHPEEFNPDRFLDADGRFRKHEAFLPFSLGKRVCLGEGLAKAELFLFFTTILQAFSLESPCPPDTLSLKPTVSGLFNIPPAFQLQVRPTDLHSTTQTR [CYP2S1],-0.0959,-0.159,57.4,57.4,-1.27,0.83
MGQIEWAMWANEQALASGLILITGGIVATAGRFTQWYFGAYSIVAGVFVCLLEYPRGKRKKGSTMERWGQKYMTAVVKLFGPFTRNYYVRAVLHLLLSVPAGFLLATILGTACLAIASGIYLLAAVRGEQWTPIEPKPRERPQIGGTIKQPPSNPPPRPPAEARKKPSEEEAAVAAGGPPGGPQVNPIPVTDEVV [CYBA],0.005,-0.167,54.8,54,-0.561,-1.21
MAARRITQETFDAVLQEKAKRYHMDASGEAVSETLQFKAQDLLRAVPRSRAEMYDDVHSDGRYSLSGSVAHSRDAGREGLRSDVFPGPSFRSSNPSISDDSYFRKECGRDLEFSHSDSRDQVIGHRKLGHFRSQDWKFALRGSWEQDFGHPVSQESSWSQEYSFGPSAVLGDFGSSRLIEKECLEKESRDYDVDHPGEADSVLRGGSQVQARGRALNIVDQEGSLLGKGETQGLLTAKGGVGKLVTLRNVSTKKIPTVNRITPKTQGTNQIQKNTPSPDVTLGTNPGTEDIQFPIQKIPLGLDLKNLRLPRRKMSFDIIDKSDVFSRFGIEIIKWAGFHTIKDDIKFSQLFQTLFELETETCAKMLASFKCSLKPEHRDFCFFTIKFLKHSALKTPRVDNEFLNMLLDKGAVKTKNCFFEIIKPFDKYIMRLQDRLLKSVTPLLMACNAYELSVKMKTLSNPLDLALALETTNSLCRKSLALLGQTFSLASSFRQEKILEAVGLQDIAPSPAAFPNFEDSTLFGREYIDHLKAWLVSSGCPLQVKKAEPEPMREEEKMIPPTKPEIQAKAPSSLSDAVPQRADHRVVGTIDQLVKRVIEGSLSPKERTLLKEDPAYWFLSDENSLEYKYYKLKLAEMQRMSENLRGADQKPTSADCAVRAMLYSRAVRNLKKKLLPWQRRGLLRAQGLRGWKARRATTGTQTLLSSGTRLKHHGRQAPGLSQAKPSLPDRNDAAKDCPPDPVGPSPQDPSLEASGPSPKPAGVDISEAPQTSSPCPSADIDMKTMETAEKLARFVAQVGPEIEQFSIENSTDNPDLWFLHDQNSSAFKFYRKKVFELCPSICFTSSPHNLHTGGGDTTGSQESPVDLMEGEAEFEDEPPPREAELESPEVMPEEEDEDDEDGGEEAPAPGGAGKSEGSTPADGLPGEAAEDDLAGAPALSQASSGTCFPRKRISSKSLKVGMIPAPKRVCLIQEPKVHEPVRIAYDRPRGRPMSKKKKPKDLDFAQQKLTDKNLGFQMLQKMGWKEGHGLGSLGKGIREPVSVGTPSEGEGLGADGQEHKEDTFDVFRQRMMQMYRHKRANK [SUGP2],-0.497,0.277,46,48.8,1.78,2.89
MVEEENIRVVRCGGSELNFRRAVFSADSKYIFCVSGDFVKVYSTVTEECVHILHGHRNLVTGIQLNPNNHLQLYSCSLDGTIKLWDYIDGILIKTFIVGCKLHALFTLAQAEDSVFVIVNKEKPDIFQLVSVKLPKSSSQEVEAKELSFVLDYINQSPKCIAFGNEGVYVAAVREFYLSVYFFKKKTTSRFTLSSSRNKKHAKNNFTCVACHPTEDCIASGHMDGKIRLWRNFYDDKKYTYTCLHWHHDMVMDLAFSVTGTSLLSGGRESVLVEWRDATEKNKEFLPRLGATIEHISVSPAGDLFCTSHSDNKIIIIHRNLEASAVIQGLVKDRSIFTGLMIDPRTKALVLNGKPGHLQFYSLQSDKQLYNLDIIQQEYINDYGLIQIELTKAAFGCFGNWLATVEQRQEKETELELQMKLWMYNKKTQGFILNTKINMPHEDCITALCFCNAEKSEQPTLVTASKDGYFKVWILTDDSDIYKKAVGWTCDFVGSYHKYQATNCCFSEDGSLLAVSFEEIVTIWDSVTWELKCTFCQRAGKIRHLCFGRLTCSKYLLGATENGILCCWNLLSCALEWNAKLNVRVMEPDPNSENIAAISQSSVGSDLFVFKPSEPRPLYIQKGISREKVQWGVFVPRDVPESFTSEAYQWLNRSQFYFLTKSQSLLTFSTKSPEEKLTPTSKQLLAEESLPTTPFYFILGKHRQQQDEKLNETLENELVQLPLTENIPAISELLHTPAHVLPSAAFLCSMFVNSLLLSKETKSAKEIPEDVDMEEEKESEDSDEENDFTEKVQDTSNTGLGEDIIHQLSKSEEKELRKFRKIDYSWIAAL [WDR75],-1.21,0.372,50,50.1,1.76,0.92
MSGCGLFLRTTAAARACRGLVVSTANRRLLRTSPPVRAFAKELFLGKIKKKEVFPFPEVSQDELNEINQFLGPVEKFFTEEVDSRKIDQEGKIPDETLEKLKSLGLFGLQVPEEYGGLGFSNTMYSRLGEIISMDGSITVTLAAHQAIGLKGIILAGTEEQKAKYLPKLASGEHIAAFCLTEPASGSDAASIRSRATLSEDKKHYILNGSKVWITNGGLANIFTVFAKTEVVDSDGSVKDKITAFIVERDFGGVTNGKPEDKLGIRGSNTCEVHFENTKIPVENILGEVGDGFKVAMNILNSGRFSMGSVVAGLLKRLIEMTAEYACTRKQFNKRLSEFGLIQEKFALMAQKAYVMESMTYLTAGMLDQPGFPDCSIEAAMVKVFSSEAAWQCVSEALQILGGLGYTRDYPYERILRDTRILLIFEGTNEILRMYIALTGLQHAGRILTTRIHELKQAKVSTVMDTVGRRLRDSLGRTVDLGLTGNHGVVHPSLADSANKFEENTYCFGRTVETLLLRFGKTIMEEQLVLKRVANILINLYGMTAVLSRASRSIRIGLRNHDHEVLLANTFCVEAYLQNLFSLSQLDKYAPENLDEQIKKVSQQILEKRAYICAHPLDRTC [ACAD9],-0.06,-0.164,54.6,54.7,4.01,3.04
